Residue numbers refer to the chain shown, from its start.
Tests used:
Settings in all cases: both partners purified
Mnl1 mCTD–FLAG = molecular target: T1, Mnl1 mCTD–FLAG (S. cerevisiae, UniProt P38888 21-796, L655N | F770Y | M772K); assay: cross-linking; competition: RBΔS, RBun or RBsc incubated with Mnl1–Pdi1 complex at the indicated molar ratios (tenfold excess in Fig. 6) in 25 mM HEPES pH 7.4, 150 mM NaCl, 0.1% Nonidet P-40, 2 mM CaCl2, 30 °C 30 min; then DPS 30 °C 30 min, N-ethylmaleimide; SDS-PAGE, Coomassie blue
T1 construct: Mnl1 (Htm1) of S. cerevisiae with three hydrophobic residues of the CTD groove changed to hydrophilic ones; source: S. cerevisiae, overexpressed together with Pdi1, purified as a complex (anti-FLAG M2 resin, Superdex 200); not shown: FLAG, C-terminal, kept
T1 sequence (looked up): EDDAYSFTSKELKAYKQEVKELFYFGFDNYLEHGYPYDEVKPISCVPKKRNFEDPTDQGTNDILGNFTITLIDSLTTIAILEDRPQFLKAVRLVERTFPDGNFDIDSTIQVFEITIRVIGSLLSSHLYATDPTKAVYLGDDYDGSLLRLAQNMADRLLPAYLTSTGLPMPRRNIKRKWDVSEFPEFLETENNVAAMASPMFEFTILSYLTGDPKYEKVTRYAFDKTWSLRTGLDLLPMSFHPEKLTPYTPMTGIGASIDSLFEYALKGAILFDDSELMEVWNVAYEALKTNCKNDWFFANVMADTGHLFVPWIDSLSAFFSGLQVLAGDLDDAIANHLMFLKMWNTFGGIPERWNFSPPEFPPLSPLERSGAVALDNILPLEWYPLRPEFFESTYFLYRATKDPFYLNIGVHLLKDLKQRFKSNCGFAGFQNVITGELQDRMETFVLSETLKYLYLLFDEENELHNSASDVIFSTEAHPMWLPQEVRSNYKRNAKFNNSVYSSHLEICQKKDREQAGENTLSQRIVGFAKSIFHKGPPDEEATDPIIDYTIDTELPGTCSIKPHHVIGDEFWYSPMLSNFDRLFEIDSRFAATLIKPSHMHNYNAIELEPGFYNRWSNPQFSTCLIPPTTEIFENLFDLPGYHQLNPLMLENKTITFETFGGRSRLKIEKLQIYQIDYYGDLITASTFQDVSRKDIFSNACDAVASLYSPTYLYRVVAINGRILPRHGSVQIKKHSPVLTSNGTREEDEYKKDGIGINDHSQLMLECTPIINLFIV

Mnl1 (C644S)–FLAG = molecular target: T2, Mnl1 (C644S)–FLAG (S. cerevisiae, UniProt P38888 21-796, C644S); assay: cross-linking; purified complexes of Pdi1 with wild-type or mutant Mnl1 incubated with increasing concentrations of DPS (2,2′-dipyridyldisulfide) to induce disulfides; non-reducing SDS-PAGE, Coomassie blue
T2 construct: Mnl1 (Htm1) of S. cerevisiae with a substituted loop cysteine; source: S. cerevisiae, overexpressed together with Pdi1, purified as a complex (anti-FLAG M2 resin, Superdex 200); not shown: FLAG, C-terminal, kept
T2 sequence (looked up): T1 sequence (looked up) with C624S, N635L, Y750F, K752M

Mnl1 (C579S)–FLAG = molecular target: T3, Mnl1 (C579S)–FLAG (S. cerevisiae, UniProt P38888 21-796, C579S); assay: as above
T3 construct: Mnl1 (Htm1) of S. cerevisiae with a substituted loop cysteine; source: S. cerevisiae, overexpressed together with Pdi1, purified as a complex (anti-FLAG M2 resin, Superdex 200); not shown: FLAG, C-terminal, kept
T3 sequence (looked up): T1 sequence (looked up) with C559S, N635L, Y750F, K752M

binding result (Mnl1 mCTD–FLAG): binds
binding result (Mnl1 (C644S)–FLAG): binds
binding result (Mnl1 (C579S)–FLAG): binds
B1: Pdi1 (protein disulfide isomerase) (enzyme, S. cerevisiae, UniProt P17967 29-522, looked up)
chain: PEDSAVVKLATDSFNEYIQSHDLVLAEFFAPWCGHCKNMAPEYVKAAETLVEKNITLAQIDCTENQDLCMEHNIPGFPSLKIFKNSDVNNSIDYEGPRTAEAIVQFMIKQSQPAVAVVADLPAYLANETFVTPVIVQSGKIDADFNATFYSMANKHFNDYDFVSAENADDDFKLSIYLPSAMDEPVVYNGKKADIADADVFEKWLQVEALPYFGEIDGSVFAQYVESGLPLGYLFYNDEEELEEYKPLFTELAKKNRGLMNFVSIDARKFGRHAGNLNMKEQFPLFAIHDMTEDLKYGLPQLSEEAFDELSDKIVLESKAIESLVKDFLKGDASPIVKSQEIFENQDSSVFQLVGKNHDEIVNDPKKDVLVLYYAPWCGHCKRLAPTYQELADTYANATSDVLIAKLDHTENDVRGVVIEGYPTIVLYPGGKKSESVVYQGSRSLDSLFDFIKENGHFDVDGKALYEEAQEKAAEEADADAELADEEDAIHDEL
notes: Pdi1, protein disulfide isomerase of S. cerevisiae, untagged; Trx domains a, b, b′ and a′; amino acids 24–500 could be modelled; source: S. cerevisiae, overexpressed together with Mnl1–FLAG (GAL1 promoter), purified as a complex

From article PMC12170172, “Initiation of ERAD by the bifunctional complex of Mnl1/Htm1 mannosidase and protein disulfide isomerase” (Nature Structural & Molecular Biology, 2025)
